Source: patent US11506662B2, “Detection, identification, and purification of degradative and non-degradative enzymes in biological samples” (The Regents of the University of California, priority 2016, dated 2022)
Starred links: 1 amine or outer side, 2 acyl side, 3 side chain; linkers in the order of their positions; H or OH if unused. Non-standard residues stand in square brackets, D forms with d. *: point of attachment. BFL = BODIPY FL (diaminoethyl-BODIPY FL label), CC1=CC(C)=[N+]2C1=Cc1ccc(CCC(=O)NCCN*)n1[B-]2(F)F; diaminoethyl = diaminoethyl linker to BODIPY FL label; Suc = O=C(CCC(=O)[*:2])[*:1]; Cy5 = Cy5 fluorescent dye; Nle = CCCC[C@H](N)C(=O)O

Experiments:
Type in all cases: biochemical
[1] = biological target: T1, thrombin (Homo sapiens, UniProt P00734); test: Coagulation monitoring: thrombin activity in whole blood of subjects taking anticoagulant vs control
T1 construct: from tissue; host or cells: whole blood of subjects
Method: To detect thrombin activity and monitor coagulation, the thrombin targeted charge-changing peptide shown in FIG. 9 (and with the sequence of Ac-N-D^−-D^−-Nle-T-P-R^+//G-S-A-G-A-G-A-G-diamino-ethyl-BFL (SEQ ID NO:1)) was incubated in a drop of whole blood from subjects taking an anticoagulant (aspirin) and from control subjects that were not taking an anticoagulant. Fluorescence signal, indicating specific binding of the peptide to thrombin in the whole blood sample, was measured at various time points up to 30 minutes.

[2] = biological target: T1, thrombin; test: Thrombin detection using thrombin-specific charge-changing peptide substrate in 1×PBS or citrated blood; conditions: 0-100 nM
Method: Various concentrations (0 nM, 0.5 nM, 5 nM, 10 nM, 20 nM, or 100 nM) of the thrombin targeted charge-changing peptide shown in FIG. 9 (and with the sequence Ac-N-D^−-D^−-Nle-T-P-R^+//G-S-A-G-A-G-A-G-diamino-ethyl-BFL (SEQ ID NO:1)) was incubated in either 1×PBS (FIG. 10A) or citrated blood (FIG. 10B), both of which contained thrombin. After incubation, fluorescence was measured, indicating specific binding of the peptide to the thrombin in the sample.

[3] = biological target: T1, thrombin; test: Whole blood thrombin detection with charge-changing peptide; conditions: untreated whole blood
Method: The thrombin targeted charge-changing peptide shown in FIG. 9 (and with the sequence Ac-N-D^−-D^−-Nle-T-P-R^+//G-S-A-G-A-G-A-G-diamino-ethyl-BFL (SEQ ID NO:1)) was incubated in untreated whole blood for up to 33 minutes. A negative control was also prepared See FIG. 11A. Fluorescence was measured at 3 minute intervals during incubation.

[4] = biological target: cathepsin-S (Homo sapiens, UniProt P25774); test: Cathepsin-S detection in buffer with charge-changing peptide; conditions: 1×PBS buffer with varying concentrations of cathepsin-S
Sequence of cathepsin-S (P25774 115-331, species assumed): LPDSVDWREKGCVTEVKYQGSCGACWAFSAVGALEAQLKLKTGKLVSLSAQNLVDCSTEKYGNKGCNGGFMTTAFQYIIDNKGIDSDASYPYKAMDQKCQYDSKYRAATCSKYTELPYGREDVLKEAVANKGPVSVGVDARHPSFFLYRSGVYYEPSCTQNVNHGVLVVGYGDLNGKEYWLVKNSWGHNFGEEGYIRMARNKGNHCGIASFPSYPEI
Method: The cathepsin-S targeted charge-changing peptide shown in FIG. 9 (and with the sequence N-SUC^−-E^−-G-R^+-W-H-T-V-G//L-R^+-W-E^−-C(Cy5^−)-R^+CO-NH2 (SEQ ID NO:5)) was incubated in 1×PBS buffer with varying concentrations of cathepsin-S. After incubation, fluorescence was measured, indicating specific binding of the peptide to the cathepsin-S in the sample.

## CC(=O)Oc1ccccc1C(=O)O [aspirin, reference compound]
[1]; whole blood from subjects taking aspirin vs subjects not taking an anticoagulant, up to 30 minutes
  Rate of fluorescence increase (thrombin activity), anticoagulant subjects vs control: more quickly in the control group

## Ac-N-D^−-D^−-Nle-T-P-R^+//G-S-A-G-A-G-A-G-diamino-ethyl-BFL (Ac-NDD[Nle]TPRGSAGAGAG-{diaminoethyl-BFL}) [SEQ ID NO:1, thrombin targeted charge-changing fluorescent peptide substrate]
[2]; 1×PBS containing thrombin
  Fluorescence after incubation: Fluorescence increased with increasing thrombin concentration
[2]; citrated blood containing thrombin
  Fluorescence after incubation: Fluorescence increased with increasing thrombin concentration
[1]; drop of whole blood, time points up to 30 minutes, both subject groups
  Fluorescence signal (thrombin activity) over time: increased in both subject groups over time
[3]; incubation up to 33 minutes
  Time of peak fluorescence values: about 18 minutes
[3]; up to 33 minutes, measured at 3 minute intervals
  Fluorescence signal during incubation: increased over time

## N-SUC^−-E^−G-R^+-W-H-T-V-G//L-R^+-W-E^−-C(Cy5^−)-R^+-CO-NH2 (Suc-EGRWHTVGLRWEC(Cy5)R-NH2) [SEQ ID NO:5, cathepsin-S targeted charge-changing fluorescent peptide substrate]
[4]
  Fluorescence after incubation: Fluorescence increased with increasing cathepsin-S concentration
